One experiment has as its target T1, NPFF-R2 (Homo sapiens, UniProt Q9Y5X5).
T1 construct: host or cells: CHO-K1 (AequoScreen, co-expressing aequorin)
Description: Cell signaling by immunoblotting, CHO-K1 cells expressing NPFF-R2. Format: cell-based. The note with it: dose-response 10^−11 to 10^−5 M, 5 min, 37 °C, immunoblot, at least two experiments. On the procedure: Cells were seeded in 24-well plates at 30,000 cells/well in assay medium (growth medium without selective antibiotics) and were grown for 2 days. The day before the experiment, the medium was changed to serum-free medium. […] Cells were lysed with Laemmli sample buffer (62.5 mM Tris-HCl at pH 6.8, 2% SDS, 10% glycerol, 0.01% bromophenol blue, 5% β-mercaptoethanol, 50 mM NaF, and 1 mM Na3VO4). Samples were stored at −20 °C. Electrophoresis and immunoblotting were performed as described previously. For detection of signaling pathways, primary monoclonal antibodies (see Table 5 for the antibodies used) purchased from Cell Signaling Technology (Danvers, MA, USA) were used.
(§1) Experiments using immunoblotting were analyzed using one-way ANOVA followed by Dunnett’s post hoc test; p < 0.05 was considered statistically significant. Dose-response curves were obtained from nonlinear regression.
(A western blot detects proteins with antibodies after separation by electrophoresis.)

Experiment [1] addresses T2, GPR10 (human, UniProt P49683 1-370).
T2 sequence (looked up): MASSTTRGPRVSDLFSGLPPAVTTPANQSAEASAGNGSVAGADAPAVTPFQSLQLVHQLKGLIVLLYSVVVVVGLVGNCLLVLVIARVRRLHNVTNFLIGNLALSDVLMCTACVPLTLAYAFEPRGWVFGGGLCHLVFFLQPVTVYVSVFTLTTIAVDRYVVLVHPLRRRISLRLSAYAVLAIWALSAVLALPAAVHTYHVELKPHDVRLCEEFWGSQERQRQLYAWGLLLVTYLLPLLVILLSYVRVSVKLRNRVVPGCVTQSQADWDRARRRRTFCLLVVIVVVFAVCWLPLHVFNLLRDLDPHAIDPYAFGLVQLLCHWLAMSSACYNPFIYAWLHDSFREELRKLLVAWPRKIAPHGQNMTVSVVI

The next experiment deals with kappa-opioid receptor (UniProt P41145 1-380).
Chain of kappa-opioid receptor (P41145 whole entry): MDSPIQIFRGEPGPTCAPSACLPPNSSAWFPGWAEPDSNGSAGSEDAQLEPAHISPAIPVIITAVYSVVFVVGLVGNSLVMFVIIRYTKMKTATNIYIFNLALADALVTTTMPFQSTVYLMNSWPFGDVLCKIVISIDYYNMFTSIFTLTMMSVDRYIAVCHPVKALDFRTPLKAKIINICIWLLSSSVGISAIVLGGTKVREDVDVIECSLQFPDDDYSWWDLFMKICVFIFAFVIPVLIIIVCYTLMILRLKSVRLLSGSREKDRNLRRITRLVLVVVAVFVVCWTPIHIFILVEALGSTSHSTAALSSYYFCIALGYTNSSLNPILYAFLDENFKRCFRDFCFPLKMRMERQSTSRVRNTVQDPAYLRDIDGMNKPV
The target of experiment [2] is T3, neuropeptide Y receptor Y5 (UniProt Q15761 1-445).
T3 sequence (looked up): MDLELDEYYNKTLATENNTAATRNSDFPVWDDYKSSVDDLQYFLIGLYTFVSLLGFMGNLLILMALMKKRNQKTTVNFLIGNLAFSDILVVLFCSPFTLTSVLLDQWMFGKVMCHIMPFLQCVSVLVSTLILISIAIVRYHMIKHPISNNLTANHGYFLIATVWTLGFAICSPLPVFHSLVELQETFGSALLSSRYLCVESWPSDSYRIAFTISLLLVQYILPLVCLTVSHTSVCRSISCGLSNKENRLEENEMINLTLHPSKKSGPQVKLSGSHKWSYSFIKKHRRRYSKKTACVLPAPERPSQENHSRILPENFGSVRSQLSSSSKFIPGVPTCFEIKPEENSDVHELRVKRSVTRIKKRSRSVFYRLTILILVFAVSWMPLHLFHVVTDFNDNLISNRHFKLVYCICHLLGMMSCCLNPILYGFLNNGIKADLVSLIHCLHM

For another experiment, the target named is ghrelin receptor (UniProt Q92847 1-366).
Chain of ghrelin receptor (Q92847 whole entry): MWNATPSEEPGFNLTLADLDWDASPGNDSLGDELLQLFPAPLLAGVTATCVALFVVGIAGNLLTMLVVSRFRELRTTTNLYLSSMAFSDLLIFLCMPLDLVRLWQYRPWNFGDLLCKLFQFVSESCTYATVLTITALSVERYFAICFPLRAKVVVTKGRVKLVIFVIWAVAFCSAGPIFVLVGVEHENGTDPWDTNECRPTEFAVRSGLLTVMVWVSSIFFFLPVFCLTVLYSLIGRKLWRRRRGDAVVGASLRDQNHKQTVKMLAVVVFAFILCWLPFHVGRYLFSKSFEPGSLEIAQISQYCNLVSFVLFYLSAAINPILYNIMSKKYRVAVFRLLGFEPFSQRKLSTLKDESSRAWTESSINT
Experiment [3] deals with T4, neuropeptide Y receptor Y2 (UniProt P49146 1-381).
T4 construct: receptor of NPY, Y2; source: U2OS cells stably expressing the receptor, bought: Thermo Fisher Scientific; on cells
T4 sequence (looked up): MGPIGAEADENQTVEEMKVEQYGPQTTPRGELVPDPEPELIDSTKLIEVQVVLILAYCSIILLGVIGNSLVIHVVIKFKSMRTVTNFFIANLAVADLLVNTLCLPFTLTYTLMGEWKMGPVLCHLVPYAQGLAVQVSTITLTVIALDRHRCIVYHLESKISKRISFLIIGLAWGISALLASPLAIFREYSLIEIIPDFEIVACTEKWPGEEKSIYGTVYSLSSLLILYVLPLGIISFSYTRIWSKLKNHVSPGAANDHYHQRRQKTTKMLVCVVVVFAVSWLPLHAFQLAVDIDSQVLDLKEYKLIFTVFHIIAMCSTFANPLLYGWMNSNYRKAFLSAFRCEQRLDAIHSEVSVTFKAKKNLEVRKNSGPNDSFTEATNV
Description: radioligand binding; competition with 0.1 nM [^125I]-PYY on U2OS cells with Y1, Y2 or Y5; 25 mM HEPES, 120 mM NaCl, 5 mM MgCl2, 4.7 mM KCl, 1 mM CaCl2, 0.5% BSA, 2 g/L glucose; peptides 10^-12 to 10^-5 M; 60 min at RT; Ki by the Cheng-Prusoff equation.

In experiment [4] the target is T5, GPR10 (Homo sapiens, UniProt P49683).
T5 construct: host or cells: CHO-K1
T5 sequence (P49683 1-370): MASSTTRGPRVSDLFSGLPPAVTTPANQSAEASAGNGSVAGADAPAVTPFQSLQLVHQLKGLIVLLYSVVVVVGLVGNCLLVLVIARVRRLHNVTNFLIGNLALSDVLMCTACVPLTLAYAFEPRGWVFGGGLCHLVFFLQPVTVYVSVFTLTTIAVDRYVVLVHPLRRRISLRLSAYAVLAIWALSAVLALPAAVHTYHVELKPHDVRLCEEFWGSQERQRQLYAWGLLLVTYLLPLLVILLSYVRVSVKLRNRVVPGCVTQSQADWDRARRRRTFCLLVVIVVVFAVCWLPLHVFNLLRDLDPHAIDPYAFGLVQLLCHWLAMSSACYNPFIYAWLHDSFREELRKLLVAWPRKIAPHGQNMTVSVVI
Description: Cell signaling by immunoblotting, CHO-K1 cells expressing GPR10. The following applies: dose-response 10^−11 to 10^−5 M, 5 min, 37 °C, immunoblot, at least two experiments. Format: cell-based. The protocol: Activation of signaling pathways was studied in the CHO-K1 cell lines containing GPR10, NPFF-R2 and NPFF-R1. Cells were seeded in 24-well plates at 30,000 cells/well in assay medium (growth medium without selective antibiotics) and were grown for 2 days. The day before the experiment, the medium was changed to serum-free medium. […] Cells were lysed with Laemmli sample buffer (62.5 mM Tris-HCl at pH 6.8, 2% SDS, 10% glycerol, 0.01% bromophenol blue, 5% β-mercaptoethanol, 50 mM NaF, and 1 mM Na3VO4). Samples were stored at −20 °C. Electrophoresis and immunoblotting were performed as described previously. For detection of signaling pathways, primary monoclonal antibodies (see Table 5 for the antibodies used) purchased from Cell Signaling Technology (Danvers, MA, USA) were used.
as §1

The target of the next experiment is T6, NPFF-R1 (UniProt Q9GZQ6 1-430).
T6 construct: also called NPFF-1R; source: CHO-K1 cell line, bought: Perkin Elmer
T6 sequence (Q9GZQ6 whole entry): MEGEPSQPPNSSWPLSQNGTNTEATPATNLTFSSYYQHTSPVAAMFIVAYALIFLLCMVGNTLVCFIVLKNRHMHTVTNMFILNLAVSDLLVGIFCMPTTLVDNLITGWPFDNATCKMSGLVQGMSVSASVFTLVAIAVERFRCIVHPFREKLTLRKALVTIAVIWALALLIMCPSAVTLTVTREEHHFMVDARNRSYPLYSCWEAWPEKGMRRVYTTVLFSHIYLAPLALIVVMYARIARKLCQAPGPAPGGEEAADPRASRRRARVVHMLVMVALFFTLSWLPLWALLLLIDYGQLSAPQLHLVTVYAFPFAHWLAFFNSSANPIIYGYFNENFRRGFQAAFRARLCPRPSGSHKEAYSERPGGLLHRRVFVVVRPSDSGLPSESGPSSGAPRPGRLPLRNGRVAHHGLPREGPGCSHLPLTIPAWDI
Description: radioligand binding; saturation with [^125I]-1DMe on membranes from CHO-K1 cells expressing NPFF-R1. The following applies: one partner purified.

Non-standard residues stand in square brackets, D forms with d. Residues, ends and D or L forms follow the SMILES beside them. No end group written: not given here. *: point of attachment. NMeF = CN[C@@H](Cc1ccccc1)C(=O)O; 125I = [125I]*

This is an account of results in paper PMC8396344, “Palmitoylation of Prolactin-Releasing Peptide Increased Affinity for and Activation of the GPR10, NPFF-R2 and NPFF-R1 Receptors: In Vitro Study” (International Journal of Molecular Sciences, 2021).

T1 sequence (Q9Y5X5 whole entry): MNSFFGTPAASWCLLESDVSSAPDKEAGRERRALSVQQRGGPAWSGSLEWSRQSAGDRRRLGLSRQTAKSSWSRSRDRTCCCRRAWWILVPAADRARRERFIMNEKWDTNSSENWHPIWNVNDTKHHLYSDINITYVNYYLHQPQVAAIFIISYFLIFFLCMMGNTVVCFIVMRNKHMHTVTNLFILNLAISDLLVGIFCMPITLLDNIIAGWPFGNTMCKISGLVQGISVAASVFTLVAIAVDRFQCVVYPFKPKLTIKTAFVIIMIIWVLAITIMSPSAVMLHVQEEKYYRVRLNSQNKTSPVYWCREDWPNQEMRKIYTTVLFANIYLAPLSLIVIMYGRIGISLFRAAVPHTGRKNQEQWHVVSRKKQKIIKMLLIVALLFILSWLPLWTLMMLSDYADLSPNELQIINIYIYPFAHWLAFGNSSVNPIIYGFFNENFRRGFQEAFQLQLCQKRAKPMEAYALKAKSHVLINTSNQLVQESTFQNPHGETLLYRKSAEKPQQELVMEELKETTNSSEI

On to `CC(C)C[C@H](NC(=O)[C@H](N)Cc1ccc(O)cc1)C(=O)N(C)[C@@H](Cc1ccccc1)C(=O)N[C@@H](CCC(N)=O)C(=O)N1CCC[C@H]1C(=O)N[C@@H](CCC(N)=O)C(=O)N[C@@H](CCCNC(=N)N)C(=O)N[C@@H](Cc1ccccc1)C(N)=O` [1DMe] (H-[dY]L[NMeF]QPQRF-NH2), for which the “EC50 of ERK activation” value on NPFF-R2 is reported as “in nanomolar concentrations”.

Take Palm-PrRP31 (peptide): the EC50, agonist mode, β-lactamase reporter assay in the experiment with GPR10 [1] is 0.0718 nM; with kappa-opioid receptor it was over 10000 nM; in experiment [2], 56.5 nM; with ghrelin receptor it was 1270 nM. In addition, the Ki (in general, a dissociation constant, usually derived from enzyme kinetics or from competition with a known ligand) in experiment [3] was over 10000 nM.

Consider “SRAHQHSMETRTPDINPAWYTGRGIRPVGRF-NH2 [PrRP31, prolactin-releasing peptide 31, reference compound]”, for which the “EC50 of ERK activation” value at GPR10 [4] is listed as “in the nanomolar range”; on NPFF-R2, “in nanomolar concentrations”.

B1: [^125I]-1DMe (peptide)
peptide: [dY](125I)L[NMeF]QPQRF-NH2
notes: 1DMe iodinated at D-Tyr1; numbers count on: the peptide
Turning to B1, the Kd (as a rule, the equilibrium constant for the complex coming apart) in the experiment with NPFF-R1 stood at 0.94 nM.
